First the molecules themselves.
B1: peptide reagent of SEQ ID NO:106 (peptide)
peptide: GGGKKAPKPGG
modifications: not checked
B2: peptide reagent of SEQ ID NO:107 (peptide)
peptide: GGGKKRPAPGG
modifications: not checked
B3: peptide reagent of SEQ ID NO:105 (peptide)
peptide: GGGKARPKPGG
modifications: not checked
B4: peptide reagent of SEQ ID NO:79 (peptide)
peptide: GGGNKPSKPK
modifications: not checked
B5: peptide reagent of SEQ ID NO:98 (peptide)
peptide: GGGKKRAKAGG
modifications: not checked
B6: peptide reagent of SEQ ID NO:73 (peptide)
peptide: GGGGPKRKGPK
modifications: not checked
B7: peptide reagent of SEQ ID NO:80 (peptide)
peptide: GGGKPSKPK
modifications: not checked
B8: peptide reagent of SEQ ID NO:56 (peptide)
peptide: GGGAGAAAAGAVVGGLGG
modifications: not checked
B9: peptide reagent of SEQ ID NO:85 (peptide)
peptide: GGGKKKKKKKK
modifications: not checked
B10: peptide reagent of SEQ ID NO:65 (peptide)
peptide: KKKAGAAAAGAVVGGLGG
modifications: not checked
B11: peptide reagent of SEQ ID NO:72 (tandem repeat) (peptide)
peptide: GGGKKRPKPGGGKKRPKPGG
modifications: not checked

The target in one assay is T1, mouse pathogenic prion protein PrP^Sc (RML, in infected Balb-c mouse brain homogenate) (mouse), P04925.
T1 sequence (P04925 23-230 limits assumed): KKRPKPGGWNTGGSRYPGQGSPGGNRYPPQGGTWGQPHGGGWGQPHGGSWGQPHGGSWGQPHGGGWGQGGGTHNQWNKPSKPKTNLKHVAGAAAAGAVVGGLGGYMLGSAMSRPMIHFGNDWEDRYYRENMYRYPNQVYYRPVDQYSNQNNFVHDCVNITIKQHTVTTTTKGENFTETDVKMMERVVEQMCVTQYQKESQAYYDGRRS
Experiment: not given
In the case of B1, the ELISA A405 nm turned out to be 0.268 A405 nm.
Molecule B2 showed an ELISA A405 nm of 0.578 A405 nm.
Still for that read-out and setting: the value for B3 was 0.256 A405 nm.

A further assay concerns the target T1, mouse pathogenic prion protein PrP^Sc …. Briefly: bead pull-down from PrPSc+ mouse brain homogenate; ELISA. Background: An ELISA detects its analyte on a solid surface through an enzyme-linked reagent.
B4 yielded an ELISA A405 nm of 0.24 A405 nm.
The same measure, in the same setting: with B5 the figure was 1.46 A405 nm.
As for B6, the ELISA A405 nm worked out at 1.06 A405 nm.
For B7, the ELISA A405 nm worked out at 0.225 A405 nm.
For B8, the ELISA A405 nm turned out to be 0.313 A405 nm.
Turning to B9, the ELISA A405 nm worked out at 0.53 A405 nm.
B10: the ELISA A405 nm came out at 0.635 A405 nm.
On the same count and under the same terms, with B11 the figure was 0.522 A405 nm.

Values taken from patent US20060035242A1.
